PMC8376927

Tests used:
[1] = target: DAPK2_RNTD, full-length human DAPK2 mutant with the C terminus S367STS370 changed to R367NTD370, autophosphorylated (human) (UniProt Q9UIK4); experiment: AUC; sedimentation velocity, DAPK2_RNTD alone at 25-350 μM; 20 °C, 42,000 rev./min; 50 mM HEPES-NaOH pH 7.5, 150 mM NaCl, 1 mM TCEP; dimer to monomers, KD from the ratios of the peak areas
[2] = target: FAM-ctDAPK2-pT369 peptide (FAM-RRRSSpTS) (human); experiment: fluorescence polarisation; 14-3-3γ (160 µM and binary dilution series) incubated 1 h with 50 nM FAM-labelled peptide; 20 mM HEPES-NaOH pH 7.4, 150 mM NaCl, 0.1% Tween 20, 0.1% BSA; one-site-binding model; apparent KD
[3] = target: FAM-ctDAPK2-pT369 peptide (FAM-RRRSSpTS) (human); experiment: fluorescence polarisation; as a1 but with 100 µM Fusicoccin A (FC-A); apparent KD

Kd [1] [µM] | stoichiometry N [1] | Kd [2] [nM] | Kd [3] [nM] | Substance
100 | 2 | – | – | DAPK2_RNTD, full-length human DAPK2 mutant with the C terminus S367STS370 changed to R367NTD370, autophosphorylated (from UniProt Q9UIK4 1-370) (enzyme)
– | – | 114 | 4.4 | Human 14-3-3γ WT (from UniProt P61981 1-247) (natural protein)
